From the RNAGym collection of RNA variant scans (doi:10.1073/pnas.2313332121)
This sample holds only a part of the variants without activity.

B1: TPR 5TU (parent)
chain: GGAUCUUCUCGAUCUAACAAAAAAGACAAAUCUGCCACAAAGCUUGAGAGCAUCUUCGGAUGCAGAGGCGGCAGCCUUCGGUGGCGCGAUAGCGCCAACGUUCUCAACUAUGACACGCAAAACGCGUGCUCCGUUGAAUGGAGUUUAUCAUG

Variants of: B1
Assay: polymerase ribozyme fitness, log enrichment relative to wild type (log ratio); higher = more active; in vitro selection for triplet polymerase activity
Method in brief: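 After PCR construction and transcription, each subunit's mutant library from a heterodimeric triplet polymerase ribozyme was annealed with a biotinylated primer, the partner subunit and triplets. Incubation was frozen, at −7 °C, and extended constructs were gel-excised, bound to streptavidin beads and amplified by RT-PCR, in one selection round done in triplicate. Fitness is the logarithm of a genotype's enrichment divided by that of the wild type, from inverse-variance-weighted replicate averages of Illumina-sequenced inputs and outputs. The base of the logarithm is 2, and genotypes needed ≥10 input reads and ≥1 read per output.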

Variant | polymerase ribozyme fitness (log ratio)
GGAUCUUCUCGAUCUAACAAAAAAGACAAAUCUGACACAAAGCUUGAGAGCCUCUUCGGAUGCAGAUCCGGCAGCUUUCGGUGGCGCGAUAGCGCCAACGUUCUCAACUAUGACUCGCACAACGCGUGCUCCGCUGAAUGGAGUUUAUCAUG | ≤ -4.2
GGAUCUUCUCGAUCUAACAAAAAAGACAAAUCUGACACAAAGCUUGAGAGCAUCUUCGGAUGCAGGGGCUGCAGCCUUCGGUGGCGGGAUAGCGCGAACGUUCUCAACUAUGACACGCAAUACGCGUGCUCCGUUGAAUGGAGUUUAUUAUG | ≤ -4.2
GGAUCUUCUCGAUCUAACAAAAAAGACAAAUCUUCCACAAAGCUUGAGAGCAUCUUCGGAUGCAGAGGCGGCAGCCUUCGGUUGCGCGAUAGCGCCAACGUUCUCAACUAUGACGCGCAAAACGCGUGCUCCGUUGAAUGGAGUGUAUCAUG | ≤ -4.2
GGAUCUUCUCGAUCUAACAAAAAAGACAAAUCUGACACAAAGCUUGAGAGCAUCUUCGGAUGCCGAGGCGGCAGCCUUCGGUGGCGCGAUAGCGCCAUUGUUCUCAACUAUGACACGCAAAACGCGUGCUCCGUUGAAUGGAGUUUAUCAUU | ≤ -4.2
GGAUCUUCUCGAUCUAACAAAAAAGACAAAUCUUCCACAAAGCUUGAGAGCAUCUUCGGAUGCAGAGGCGGCAGCCUUCGGUGGCGCGAUAGCGCCAACGUUCUCAACUAUGACACGCAAAACGCGUGCUCCGUUGAAUGCAGUUUAUCAUG | -2.78
GGAUCUUCUCGAUCUAACAAAAAAGACAAAUCUGACACAAAGCUUGAGAGCAUCUUCGGAUGCAGAGGCGGCAGCAUUCGGUGGCGCGAUAGUGCCAACGUUCUCAACUAUGUCACGCAAAACGCGUGCGCCGUUGAAUGGAGUUUGUCAUG | ≤ -4.2
GGAUCUUCUCGAUCUAACAAAAAAGACAAAUCUUCCACAAAGCUUGAGAGCAUCUUCUGAUGCAGAGGCGGCAUCCUUCGAUGGCGCGAUAGCGCCAACGUACCCAACUAUGACACGCAAAACGCGUGCUCCGUUGAAUGGAGUUUAUCAUG | ≤ -4.2
GGAUCUUCUCGAUCUAACAAAAAAGACAAAUCUUCCACAAAGCUUGAGAGCAUCUUCGGAUGCAGAGGCGGCAGCCUUCGGUGGCGCGAUAGCGCGAACGUUCUCAACUAUGACACGCAAAACGCGUGCUCCGUUGAAUGGAGUUUAUCAUG | -2.91
GGAUCUUCUCGAUCUAACAAAAAAGACAAAUCUUCCACAAAGCUUGAGAGCAUCUUCGGAUGCAGAGGCGGCAGCCUUCGGUGGAGCGAUAGCGCCAACGUUCUCAACUAUGACACGCAAAACGCGUGCUCCGUUGAAUGGAGUUUAUCAUG | -3.91
GGAUCUUCUCGAUCUAACAAAAAAGACAAAUCUGACACAAAGUUUGAGUGCAUCUUCGGAUGCGGAGGCGGCAGCUUUCGGUGGCGCGAUAGCGCAAACGGUCUCAACUAUGACACGCAAAACGCGUGCUCCGUUGAAUGGAGUUUAUUAUG | ≤ -4.2
GGAUCUUCUCGAUCUAACAAAAAAGACAAAUCUUCCACAAAGCUUGAGAGCAUCUACGGAUGCAGAGGCGGCAGCCUUCGGUGGCGCGAUAGCGCCAACGUUCUCAACUAUGACACGCAAAACGCGUGCUCCGUUGAAUGGAGUUUAUCAUG | -1.7
GGAUCUUCUCGAUCUAACAAAAAAGACAAAUCUGACACAAAGCUUGAGAGCAUCUUCGGAUGCAGGGGCGGCAGCCUUCGGUGGCGUGAUAGCGCCAACGUUCUCAACUAUGACACGCAAAACGCGCGCUCCGUUGAAUGGAGUUUAUCAUG | ≤ -4.2
GGAUCUUCUCGAUCUAACAAAAAAGACAAAUCUGACACAAAGCUUGAGAGCAUCUUUGGAUGCAGAGGCGGCAGCCUUCGGUGGCGCGAUAGGGCCAACGUUCUCAACUAUGACACGCAAAACGCGUGCUCCGAUGAAAGGAGUUUAUCAUG | ≤ -4.2
GGAUCUUCUCGAUCUAACAAAAAAGACAAAUCUGACACAAAGCUUGAGAGCAUCUUCGGAUGCAGAGGCGGCAGCCUUCGGUGGCGCGUGAGCGCCAAUGUUCUCAACUAUGACACGCAAAACGCGUGCUCCGUUGAAUGGAGGUUAUCAUG | ≤ -4.2
GGAUCUUCUCGAUCUAACAAAAAAGACAAAUCUGACACAAAGCUUGAGAGCAUCUUCGGAUGCAGAGGCGGCAGCCUUAGGUAGCGCGAUAGCGCCAAAGUUCUCAACUAUGACACGCAAAACGCGUGCUCCGUUGAAUGGAGUUUAUCAUG | ≤ -4.2
GGAUCUUCUCGAUCUAACAAAAAAGACAAAUCUGACACAAAGUUUGAGAGCAUCUUCGGAUGCAGAGGCGGCAGCCUUCGGUGGCGAGAUAGCGCCAACGUUCUCAACUAUGACACGCAAAACGCGUACUCCGUUGAAUGGAGUUUAUCAUG | ≤ -4.2
GGAUCUUCUCGAUCUAACAAAAAAGACAAAUCUGACACAAAGCUUGCGAGCAUCUUCGGAUGCAGAGGCGGCAGCCUUCGGUGGCUCGAUAGCGCCAACGUUCUCAACUAUGACACGCAAAACGCGUGCUCCGUUGAAUGGAGUUUAUCAUG | ≤ -4.2
GGAUCUUCUCGAUCUAACAAAAAAGACAAAUCUUCCACAAAGCUUGAGAGCAUCUUCGGAUGCAGAGGCGGCAGCCUUCGGUGGCGCGAUAGCGUCAACGUUCUCAGCUGUGACACGCAAAACGCGUGCUCCGUUGAAUGGAGUUUAUCAUG | -3.86
GGAUCUUCUCGAUCUAACAAAAAAGACAAAUCUGACACAAAGCUUGAGCGCAUCUCCGGAUGCAGAGGCGAUAGCCUUCGGUGGCGCGAUAACGCCAACGUUCUCAACUAUGACCCGCAAAACGCGUGCUCCGUUGAAUGGAGUUUAUCAUG | -3.21
